Source: patent US20240374671A1 (ACCELERON PHARMA, published 2024)
Changes are numbered by the printed parent chain.

B1: D02 (antibody, human IgG1, V domains shown)
VH: QVQLVQSGAEVKKPGASVKVSCKASGYTFTSYRMHWVRQAPGQGLEWMGFIVPSGGSTSYAQKFQGRVTMTRDTSTSTVYMELSSLRSEDTAVYYCARVSMYAPEPMDVWGQGTTVTVSS
VL: DIQMTQSPSSVSASVGDRVTITCRASQGISRWLAWYQQKPGKAPKLLIYAASSLQSGVPSRFSGSGSGTDFTLTISSLQPEDFATYYCQQAFSHPWTFGGGTKVEIK
notes: Human IgG
B2: B02 (antibody, human IgG1, V domains shown)
VH: QVQLVQSGAEVKKPGASVKVSCKASGYTFTGHKMHWVRQAPGQGLEWMGWINPASGWTNYAQKFQGRVTMTRDTSISTAYMELSRLRSDDTAVYYCARVSMYAPEPMDVWGQGTTVTVSS
VL: B1 VL
notes: Human IgG
B3: A02 (antibody, human IgG1, V domains shown)
VH: QVQLVQSGAEVKKPGASVKVSCKASGYTFTSYGISWVRQAPGQGLEWMGWISPYNGNTNYAQKLQGRVTMTTDTSTSTAYMELRSLRSDDTAVYYCARVSMYAPEPMDVWGQGTTVTVSS
VL: B1 VL
notes: Human IgG; also called A02 Parent
B4: D03 (antibody, human IgG1)
heavy: not shown
light: B1 VL
notes: Human IgG
B5: C02 (antibody, human IgG1, V domains shown)
VH: B1 VH with R33N, H35A, F50I, V52R, G55V
VL: B1 VL
notes: Human IgG

These binders were tested against T1, monomeric hActRIIB (human, UniProt Q13705 25-130, limits assumed) (assay: SPR (Biacore), 37 C).
T1 construct: also called ActRIIB MONOMER; ActRIIB monomer
T1 sequence: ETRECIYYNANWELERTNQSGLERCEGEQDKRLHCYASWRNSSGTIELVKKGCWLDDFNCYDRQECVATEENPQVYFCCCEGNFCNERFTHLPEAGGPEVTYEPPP

Question: Which Kd does the source give for B1 here?
Answer: 0.65 nM

Question: And the koff?
Answer: 0.000291 s⁻¹

Question: And the kon?
Answer: 447000 M⁻¹ s⁻¹

Question: Which results are given for B2?
Answer: Kd: 1.1 nM; koff: 0.001 s⁻¹; kon: 905000 M⁻¹ s⁻¹

Question: Which Kd does the source give for B3 here?
Answer: 22 nM

Question: What about the koff of the same binder?
Answer: 0.0662 s⁻¹

Question: And the kon?
Answer: 3.02e+06 M⁻¹ s⁻¹

Question: How did the Kd turn out when B4 was run?
Answer: 0.194 nM

Question: And the koff?
Answer: 0.000203 s⁻¹

Question: And the kon?
Answer: 1.05e+06 M⁻¹ s⁻¹

Question: Which Kd does the source give for B5 here?
Answer: 0.528 nM

Question: And the koff?
Answer: 0.000515 s⁻¹

Question: What about the kon of the same binder?
Answer: 975000 M⁻¹ s⁻¹

What follows are binders tested against T2, dimeric hActRIIB (human, UniProt Q13705 25-130) (assay: SPR (Biacore), 37 C).
T2 construct: also called ActRIIB DIMER; ActRIIB dimer
T2 sequence: T1 sequence

Question: Which Kd does the source give for B1 here?
Answer: 0.727 nM

Question: And the koff?
Answer: 0.000123 s⁻¹

Question: What about the kon of the same binder?
Answer: 170000 M⁻¹ s⁻¹

Question: For B2, which Kd is on record?
Answer: 0.649 nM

Question: What about the koff of the same binder?
Answer: 0.00021 s⁻¹

Question: What about the kon of the same binder?
Answer: 323000 M⁻¹ s⁻¹

Question: B3 was tested. Which Kd did it give?
Answer: 0.511 nM

Question: And the koff?
Answer: 0.000112 s⁻¹

Question: What about the kon of the same binder?
Answer: 219000 M⁻¹ s⁻¹

Question: Which results are given for B4?
Answer: Kd: 0.0226 nM; koff: 1.04e-05 s⁻¹; kon: 459000 M⁻¹ s⁻¹

Question: Which results are given for B5?
Answer: Kd: 0.333 nM; koff: 9.64e-05 s⁻¹; kon: 289000 M⁻¹ s⁻¹

The binders below were run against T3, monomeric hActRIIA (human, UniProt P27037 21-138, limits assumed) (assay: SPR (Biacore), 37 C).
T3 construct: also called ActRIIA MONOMER; ActRIIA monomer
T3 sequence (P27037 21-138 limits assumed): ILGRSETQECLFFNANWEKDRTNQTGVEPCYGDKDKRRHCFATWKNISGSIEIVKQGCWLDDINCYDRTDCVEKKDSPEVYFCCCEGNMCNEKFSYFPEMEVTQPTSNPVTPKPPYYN

Question: Which results are given for B1?
Answer: Kd: 18.6 nM; koff: 0.00684 s⁻¹; kon: 369000 M⁻¹ s⁻¹

Question: Which Kd does the source give for B2 here?
Answer: 8.13 nM

Question: And the koff?
Answer: 0.00593 s⁻¹

Question: And the kon?
Answer: 729000 M⁻¹ s⁻¹

Question: How did the Kd turn out when B5 was run?
Answer: 26.4 nM

What follows are binders tested against T4, dimeric hActRIIA (human, UniProt P27037 21-138) (assay: SPR (Biacore), 37 C).
T4 construct: also called ActRIIA DIMER; ActRIIA dimer
T4 sequence (P27037 21-138): as the sequence (P27037 21-138 limits assumed) above

Question: Which Kd does the source give for B1 here?
Answer: 0.316 nM

Question: And the koff?
Answer: 0.000106 s⁻¹

Question: And the kon?
Answer: 336000 M⁻¹ s⁻¹

Question: What does the source list for B2?
Answer: Kd: 0.338 nM; koff: 0.000167 s⁻¹; kon: 495000 M⁻¹ s⁻¹

Question: With B3 as the binder, how does the Kd read?
Answer: 1.78 nM

Question: What about the koff of the same binder?
Answer: 0.000627 s⁻¹

Question: What about the kon of the same binder?
Answer: 353000 M⁻¹ s⁻¹

Question: How did the Kd turn out when B5 was run?
Answer: 0.153 nM

Question: What about the koff of the same binder?
Answer: 8.02e-05 s⁻¹

Question: What about the kon of the same binder?
Answer: 524000 M⁻¹ s⁻¹
